Experiments:
[1] = molecular target: CCR2 (mouse) (UniProt P51683); assay: cell-based or functional assay
[2] = molecular target: ICAM-1-Fc (Homo sapiens (Human)) (UniProt P05362); assay: laminar flow adhesion assay, human T cells on coated ICAM-1-Fc
UniProt P05362, sequence (P05362 28-480 limits assumed): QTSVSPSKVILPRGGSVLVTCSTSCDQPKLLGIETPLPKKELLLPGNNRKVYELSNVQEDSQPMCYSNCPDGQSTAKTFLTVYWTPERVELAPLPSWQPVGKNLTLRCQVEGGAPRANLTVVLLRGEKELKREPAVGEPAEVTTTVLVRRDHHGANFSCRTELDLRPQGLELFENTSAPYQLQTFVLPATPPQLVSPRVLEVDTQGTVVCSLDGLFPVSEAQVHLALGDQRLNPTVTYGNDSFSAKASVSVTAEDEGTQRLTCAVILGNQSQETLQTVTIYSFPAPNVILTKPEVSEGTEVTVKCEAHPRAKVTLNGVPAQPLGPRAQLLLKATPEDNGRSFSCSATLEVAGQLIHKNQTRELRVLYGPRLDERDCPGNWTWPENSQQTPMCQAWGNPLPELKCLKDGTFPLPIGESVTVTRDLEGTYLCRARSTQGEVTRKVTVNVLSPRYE

UniProt P51683, sequence (P51683 whole entry): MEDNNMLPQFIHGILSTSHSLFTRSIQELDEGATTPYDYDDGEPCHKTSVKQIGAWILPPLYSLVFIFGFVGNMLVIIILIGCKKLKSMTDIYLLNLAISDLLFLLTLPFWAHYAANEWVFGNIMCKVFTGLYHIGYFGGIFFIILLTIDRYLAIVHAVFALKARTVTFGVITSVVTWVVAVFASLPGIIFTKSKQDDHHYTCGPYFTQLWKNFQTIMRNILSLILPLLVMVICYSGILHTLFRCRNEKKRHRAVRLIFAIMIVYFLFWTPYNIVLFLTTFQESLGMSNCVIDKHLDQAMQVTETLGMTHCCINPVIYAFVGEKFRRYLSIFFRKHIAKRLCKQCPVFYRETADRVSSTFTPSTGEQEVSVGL
LFA-1, sequence (P20701 26-1170): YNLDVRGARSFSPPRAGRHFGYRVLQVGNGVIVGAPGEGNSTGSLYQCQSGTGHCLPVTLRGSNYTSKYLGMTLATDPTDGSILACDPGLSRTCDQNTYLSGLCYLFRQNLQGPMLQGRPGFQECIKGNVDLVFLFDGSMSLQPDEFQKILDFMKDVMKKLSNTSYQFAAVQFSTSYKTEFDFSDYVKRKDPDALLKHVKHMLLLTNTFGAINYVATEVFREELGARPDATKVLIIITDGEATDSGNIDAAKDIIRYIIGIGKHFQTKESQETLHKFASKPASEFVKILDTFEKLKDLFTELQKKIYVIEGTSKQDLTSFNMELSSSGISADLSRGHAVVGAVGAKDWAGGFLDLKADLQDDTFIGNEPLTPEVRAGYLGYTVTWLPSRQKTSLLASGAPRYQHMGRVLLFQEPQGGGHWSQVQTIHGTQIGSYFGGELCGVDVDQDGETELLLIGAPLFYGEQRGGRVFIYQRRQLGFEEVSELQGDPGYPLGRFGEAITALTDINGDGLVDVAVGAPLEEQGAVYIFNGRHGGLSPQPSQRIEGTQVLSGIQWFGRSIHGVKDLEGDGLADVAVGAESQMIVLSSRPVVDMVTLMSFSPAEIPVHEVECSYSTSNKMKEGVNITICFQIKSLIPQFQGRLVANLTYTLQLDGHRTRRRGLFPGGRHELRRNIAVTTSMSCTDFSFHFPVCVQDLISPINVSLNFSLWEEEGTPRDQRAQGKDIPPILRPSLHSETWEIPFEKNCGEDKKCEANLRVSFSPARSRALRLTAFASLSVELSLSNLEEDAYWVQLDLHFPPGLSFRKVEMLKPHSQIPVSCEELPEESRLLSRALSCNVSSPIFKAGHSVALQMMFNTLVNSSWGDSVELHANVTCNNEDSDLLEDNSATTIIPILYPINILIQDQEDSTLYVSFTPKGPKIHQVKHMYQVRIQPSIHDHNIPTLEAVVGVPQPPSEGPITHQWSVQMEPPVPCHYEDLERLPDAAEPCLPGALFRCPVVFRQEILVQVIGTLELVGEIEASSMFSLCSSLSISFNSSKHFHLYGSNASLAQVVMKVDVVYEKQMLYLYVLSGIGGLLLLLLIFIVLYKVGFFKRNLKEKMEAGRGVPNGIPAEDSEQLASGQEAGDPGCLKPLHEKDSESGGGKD
LFA-1, sequence (P05107 23-769, further chain): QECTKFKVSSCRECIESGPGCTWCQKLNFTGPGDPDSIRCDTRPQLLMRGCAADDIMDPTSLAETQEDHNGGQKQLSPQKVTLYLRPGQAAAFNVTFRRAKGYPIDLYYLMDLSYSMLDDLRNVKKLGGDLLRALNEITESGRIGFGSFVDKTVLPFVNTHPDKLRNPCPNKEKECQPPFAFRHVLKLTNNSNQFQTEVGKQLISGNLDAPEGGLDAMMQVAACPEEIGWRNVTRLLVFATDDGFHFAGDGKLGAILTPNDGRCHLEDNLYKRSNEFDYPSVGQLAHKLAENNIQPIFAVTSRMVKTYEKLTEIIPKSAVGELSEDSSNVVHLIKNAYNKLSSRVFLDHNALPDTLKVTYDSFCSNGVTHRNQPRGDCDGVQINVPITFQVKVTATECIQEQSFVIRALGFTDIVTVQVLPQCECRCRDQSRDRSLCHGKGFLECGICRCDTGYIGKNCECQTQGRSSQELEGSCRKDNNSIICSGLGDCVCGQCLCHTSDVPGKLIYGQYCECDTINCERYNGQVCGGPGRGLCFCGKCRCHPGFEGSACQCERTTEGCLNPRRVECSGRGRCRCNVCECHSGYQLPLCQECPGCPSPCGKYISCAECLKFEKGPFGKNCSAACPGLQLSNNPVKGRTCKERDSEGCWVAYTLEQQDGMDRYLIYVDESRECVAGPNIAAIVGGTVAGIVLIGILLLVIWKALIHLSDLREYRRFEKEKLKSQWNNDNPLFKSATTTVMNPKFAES

Row | Substance | decrease in actin polymerization of naive T cells induced by CXCL12 or CCL21 (FITC-phalloidin, FACS) [1] | decrease in migration of naive T cells in a Transwell assay towards CXCL12 or CCL21 after pretreatment with CCL2 (0.1 ng/ml) [1] | percent of cellular tethers to ICAM-1 blocked by LFA-1 blockers [2]
1 | CCL2 (ligand) | 40 to 50% | 40 to 50% | 
2 | LFA-1 (from UniProt P20701 26-1170; P05107 23-769) (receptor; other documents disagree on this pair) |  |  | > 90%

Source: patent US20110165116A1
